The source of these data is article PMC3155531, “In Vitro and Ex Vivo Analysis of CHRNA3 and CHRNA5 Haplotype Expression”.

The data set addresses SP-1 (rhSP-1) (Homo sapiens, UniProt P08047 2-785). As to the kind of experiment: EMSA; 300 ng rhSP-1, 125 fmol probe; competed by 50x/100x cold probe; Promega Gel Shift Assay System (binding buffer, salt and pH not given); 10 min preincubation then 20 min with probe at 25 C; 4% non-denaturing PAGE. Conditions: protein: recombinant; label: 32P 5' end; blunt. (In general: A gel shift assay detects complexes by their altered migration in electrophoresis.)

Sequence of SP-1 (rhSP-1) (P08047 2-785): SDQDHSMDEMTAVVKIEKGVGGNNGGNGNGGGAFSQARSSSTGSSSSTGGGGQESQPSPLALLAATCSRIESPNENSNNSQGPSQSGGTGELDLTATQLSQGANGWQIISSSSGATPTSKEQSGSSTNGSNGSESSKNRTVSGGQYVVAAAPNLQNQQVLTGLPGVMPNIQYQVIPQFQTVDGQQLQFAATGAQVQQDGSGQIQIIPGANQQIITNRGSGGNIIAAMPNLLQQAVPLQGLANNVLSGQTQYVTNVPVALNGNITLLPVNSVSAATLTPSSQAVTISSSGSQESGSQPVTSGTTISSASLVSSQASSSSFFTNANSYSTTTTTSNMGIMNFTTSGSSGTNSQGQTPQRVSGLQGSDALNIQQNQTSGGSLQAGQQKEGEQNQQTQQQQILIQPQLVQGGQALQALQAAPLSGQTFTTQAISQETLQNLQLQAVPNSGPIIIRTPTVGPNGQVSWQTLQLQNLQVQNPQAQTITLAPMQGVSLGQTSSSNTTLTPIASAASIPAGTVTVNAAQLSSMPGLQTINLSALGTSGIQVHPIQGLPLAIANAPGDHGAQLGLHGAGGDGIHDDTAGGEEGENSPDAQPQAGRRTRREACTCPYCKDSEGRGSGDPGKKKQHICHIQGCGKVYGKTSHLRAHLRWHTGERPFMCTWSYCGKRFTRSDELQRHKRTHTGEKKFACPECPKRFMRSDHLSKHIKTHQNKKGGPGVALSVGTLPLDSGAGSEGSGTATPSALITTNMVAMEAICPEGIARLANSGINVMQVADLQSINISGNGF

B1: dsA5pInDel (CHRNA5 promoter rs3841324 region) (dsDNA)
DNA 1: GATTGGGCGGGGCCAGAGGGAAATAGGGG
DNA 2: CCCCTATTTCCCTCTGGCCCCGCCCAATC
With B1, the binding result is reported as “binds”.
